For 109 sequences, AmyQ secretion efficiency results are on record in the supplement of paper PMC9942255.

This data set concerns Bacillus subtilis DB104 (SP-AmyQ fusion secretion). The data set can be described thus: AmyQ secretion efficiency, weighted average sort bin (1 = best secretion, 10 = worst) (bin number (weighted average, 1-10)); higher = lower secretion efficiency. The essentials:
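In this assay, the secretion score is defined as the average bin number weighted by read frequency, normalised to beads per bin, with low-abundance sequences not counted. B. subtilis DB104 cells expressing mature AmyQ behind designed signal peptides (amyE-integrated) were enclosed with fluorescein-starch in ~65 nL alginate beads at about 0.3 cells per bead. Beads grew about 13 h at room temperature, were stained with nile red, and occupied beads went into 10 equally populated green/red fluorescence ratio bins by large-particle flow cytometry, whose amplicons were Illumina-sequenced.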

“And” between values parts separate entries of the source, which are not always exact repeats. Identical values can stand only once.

Sequence MKRLFMKASLVLFAVVFVFAVKGAPAKAADD gave an AmyQ secretion efficiency of 3.6.
Take MLTKRLLTIYIMLLGLIDDDPGAAQAEEK: the AmyQ secretion efficiency came to 9.93.
The value for MRNLTKTSLLLAGLCTAAQMVFVTHASAAKR was 2.59; that for MFNRLFRVCFLAALIMAFTLPNSVYPQKP was 7.22.
With MRIFKKAVFVIMISFLIATVNVNTAHAAID, the AmyQ secretion efficiency is 3.53 and 3.56 and 3.38.
With MKKAAAVLLSLGLVFGFSYGAGHVVPTAAEAKTK the figure was 4.57.
MKKAAAVLLSLGLVFDKGYEPGHVAEAKTK had an AmyQ secretion efficiency of 2.85.
With MLCVMMLLFSAIASFPVSAQAAKK the figure was 6.38.
MKIRKIKKSSALSFGMLISAVPALAAGT registered an AmyQ secretion efficiency of 4.2.
With MKVLLSALLLLLFAFEPSESGKKL the figure was 6.5.
The sequence MKKSQYFIVFICFFVLFSVHPIAFTPSAAAADS gave an AmyQ secretion efficiency of 2.09.
With MKRITINIITMFIAAAVISLTGTAEAAPK the figure was 2.12; with MKLSVKIAGVLTVAAAAMTAKMYATAAGN, 6.91; with MTKKAWFLPLVCVLLISGWLAPAASASVQTT, 2.48.
With MKKSQYFRKRRCKRVLFSVHPIAAAAADS the figure was 7.95.
The value for MGMKKKLSLGVASAAGGTWAAFN was 8.23; that for MKKTIMSFVAVAALSTTAFGAHASRKEI was 4.66; that for MKKWMAGLFLAAAVLLCLMVPQQIQGDED was 8.35.
For the sequence MKKSQYFIVFICFFVLFSVHPIAAANADS, the AmyQ secretion efficiency was found to be 4.12.
With MKKGIIRFRRKKFVLFFALSTGITGVQAAPA the figure was 4.49.
As for MKKIMSAFVGMVLLTIFCKKRKRRASAAYD, the AmyQ secretion efficiency was 7.21.
Sequence MKSKGSIMACLILFLFMIFTFINTETISAFSN came in with an AmyQ secretion efficiency of 5.32.
The value for MNKKYQTGQVCIIFTSALFPTFSSVTAAQG was 3.64; that for MKKRLIAPMLLSAASLAFFAMSGSAQIAAY was 8.39; that for MRKKRVITCVMAASLTLGSLLPAGYASFKED was 3.82.
The value for MKKKRMSFVAVAALSTTAFGAHASAKEI was 4.12; that for MKRLLSTLLIGIMLLKRKRRRAFAKQD was 8.09; that for MRSYIKVLTMCFLGLILFVPTKDEPALADNS was 2.48.
Regarding MKKIGLLFMLCLAALFTIGFPAQQADAAED, the AmyQ secretion efficiency was determined as 2.02.
The value for MKRIRIPMTLALGAALTIAPLKRKASAEEN was 7.5.
As to MNKPTKLFSTLALAAGMTRRKKRKAGTIHAQQP, the AmyQ secretion efficiency was found to be 6.79.
MKKKQVMLALTAAAGLGLTALHSAPAAKLAPL returned an AmyQ secretion efficiency of 4.96.
The value for MKKWIYVVLVLSIAGIGGFSYHAASS was 7.41.
As for MSTIGLLFMLCLAALFTIGFPAQQADAAEA, the AmyQ secretion efficiency was determined as 2.8.
With MKKCLLFLTTIALILISLSTNAFAKNT the figure was 2.13; with MSTFLIGAGVAAVILSGWFIADHQTHSQEM, 6.2; with MRKKLKWLSFLLGFIILLFLFDEEEDDFSNNDS, 5.38.
The value for MKVLLSALLLLLFAFEPSASGAPR was 3.63; that for MMSTIFAFLTGLMMFGTITAASASPD was 4.92.
With MKVLLSALLLLLFAFEPSASCKKL the figure was 4.65; with MKRSISIFITCLLITLLTMGGMIASPRSAAGT, 2.42; with MKKAKRKRLSVVLVTTVFLVKQQESVAQAKQL, 5.44.
The sequence MRFTKVRRKKSVLGLAAVFPLTAQAEKA came in with an AmyQ secretion efficiency of 7.85.
The sequence MKWMCSICCAAVLLAGGASQAEAV showed an AmyQ secretion efficiency of 3.1.
Sequence MRPVFPLILSAVLFLSCFFGARQTEASASPF gave an AmyQ secretion efficiency of 2.82.
Regarding MFKFKKNFLFLVGLSAALMSISLFSATASAAST, the AmyQ secretion efficiency stood at 1.42.
MFKFKKNFRRRRRRALMSISLFSATASAAST returned an AmyQ secretion efficiency of 6.72.
With MHLIRQSQGYCQYTVLIAGCRFNEDQHQAEGENT the figure was 6.47.
The value for MKKGIIRTFFLLVSFVLFFALSTGITGVQAAPA was 2.73; that for MKKSAAVLLSLGLVSGFSYGAGHVAEAKTK was 2.59; that for MTKKAWFLPLVCVLLISGWLAPAASASGQTT was 1.87.
In the case of MKKLIQVMIMFTLLLTMAFSADAADS, the AmyQ secretion efficiency is 4.44.
On to MKKVLMAFIICLSLILSVLAAPPSGAKPESV, for which the AmyQ secretion efficiency was 4.65.
MGLGKKLSVAVAASFMSLSISLPGVQGAEG displayed an AmyQ secretion efficiency of 1.9.
The value for MKKAFILSAAAAVGLFTFLILSFTGGVQQASAKEL was 3.78.
The value for MIVIKRKRKRIIVFLSVIQPQPS was 8.52; that for MMIMQCVICLSLLVFGTTAAHAEET was 2.38.
Sequence MKKRRIVSILFMFGLVMGFSQFQPSTVFAADK returned an AmyQ secretion efficiency of 2.46.
In the case of MRSYIKVLTMCFLGLILFVPTALLDNS, the AmyQ secretion efficiency came out at 5.28.
With MRKAVLLSLIMLIAGFLISFSFQM the figure was 7.21; with MKLSVKIAGVLTVAAAAMVAFTIAFFFTAKMYATAKGN, 2.45; with MKNMSCKLVVSVTLFFSFLTIGPLYHAQNS, 5.32.
MLKKKWMTRGLAGCLAAGGFSYNAFATEN: the AmyQ secretion efficiency was 6.77.
Take MSNMSCMLVVSVTLFFSFLTIGPLAHAQNS: the AmyQ secretion efficiency was 1.7.
With MKLAKRVSALTPSTTLAITGFVGSTTFTAPTAKAKEL the figure was 6.19; with MKRKTLSSLAISALSLGLLVSAPTASFAAES, 2.4.
With MILRKVLTGSVLSLGLLVSASPAFATSP the figure was 1.73; with MKKRLIGFLVLVPALIMSGITLDEANKK, 4.52.
With MNLRKILLSSALSLGMLFSFAFVSAAPVLATSS the figure was 2.03.
The sequence MLTKRLLTIYIMLLGLIAWFPGAAQGEEK gave an AmyQ secretion efficiency of 2.56.
MHLIRAAGAVCLAVVLIAGCRFNEDQHQWEGENT had an AmyQ secretion efficiency of 5.73.
For MRMLWRSLALCGLALTLAPCAQWAEP, the AmyQ secretion efficiency stood at 5.9.
MKRIRIPMTLALGAALTIAPLSFASGEEN displayed an AmyQ secretion efficiency of 3.92.
MRSYIKVLTMCFLGLILFVPTALAAND returned an AmyQ secretion efficiency of 2.11.
For MAIIIAIIAAVIVIAALITFIVIVIRNASPG, the AmyQ secretion efficiency was 6.93.
With MLKRTSFVSSLFISSAVLLSILLPSGQVHAQSA the figure was 1.69; with MKKRRYFIVFICFFVLFSVHPIAAAAADS, 3.35.
The value for MKTLRSRCYKGILSGVIFFGLKIDAKDI was 6.82; that for MYNRKRRVCFLAALIMAFTLPNSVYAQKP was 2.73.
The value for MKLRKVLTGSVLSLGLLVSASPTFATSP was 1.93; that for MRKKKLWISLLFALTLIFTMAFSNMSAQAAGK was 2.97; that for MKKRWRKTSQAAVLLLMVPKVSLADAA was 7.38.
As for MYKGWLIQFAVMLSVLSTFTYSASAVGV, the AmyQ secretion efficiency amounted to 5.73.
The value for MTGLKMLSMLTVMIASLFIFSSQALAVQY was 1.83.
Consider MLKKIALTLCPAIVGSLLFFTDEDDEEASAHVS, for which the AmyQ secretion efficiency came to 5.14.
MMIKQCKKCLSLLVFGTTAAHAEET displayed an AmyQ secretion efficiency of 7.22.
The value for MRGKSAKRLSLIMLIAGFLISFSFQM was 7.38; that for MKKRKRRNFKRFIAAFLVLALMISLVPADVLKKST was 6.16.
The sequence MKKFLVSLIIGTFVISVPFMANAQSD came in with an AmyQ secretion efficiency of 1.69.
Consider MIVSRQTRQRIIVFLSVIQPQPS, for which the AmyQ secretion efficiency was found to be 6.7.
The value for MMKKGLLAGALTATVLFGTCKDAEAASQ was 1.66; that for MKLAKRVSALTPSTTLAIVAKAKEL was 6.85.
For MKKQIITATTAVVLGSTLFAAASSTGAASAQSI, the AmyQ secretion efficiency amounted to 3.24.
The sequence MGLGKKLSVAVAASFMSLSISLFVVQAAEG came in with an AmyQ secretion efficiency of 3.73.
In turn, MKKLLAAGIIGLLTVSIASPGFAAEK displayed an AmyQ secretion efficiency of 2.84.
The value for MKKVLMAFIICLSLILSVLAAPPSGSKAESV was 3.67; that for MKRLCKKRKVFSLFLVLLPGKALGAVD was 7.25.
The value for MKKWMAGLFLAAAVLLCLMVPQQCQGASS was 2.09; that for MKLAKRVSALTPSTTLAITVKAKEL was 6.82; that for MRKTIFAFLTGLMMFGTITACSASPD was 5.81.
As for MKKRKRRNFKRFIAAFLVLALMISLVPADSLAKST, the AmyQ secretion efficiency is 2.3.
With MKRIRIPMTLALGAALTIAPLSFASCEEN the figure was 4.65; with MKKLLAAGIIGLLTVSIASPSFAASD, 2.22.
As for MKKWIYIMSFMIVVLVLSIAGIGGFSVHAASS, the AmyQ secretion efficiency came to 4.
Sequence MFNRLFRVCFLAALIMAFTLPNSHYAQKP gave an AmyQ secretion efficiency of 6.53.
Regarding MKLKSKLLLSCLALSTVFVATTICNAPTH, the AmyQ secretion efficiency stood at 5.85.
With MKIRKMFMFILLSSALSFGMLISAVPALAAGT the figure was 2.01; with MRFTKVVGFLSVLGLAATTTFIVFPLTAQAEKA, 1.5; with MKVPKTMLLSTAAGLLLSLTATSVSCHYV, 5.45.
